In test [1] the target is T1, recombinant TST-Galphai1 protein bound to GTPgammaS (human, UniProt P63096 1-354, Loaded non-covalently with GTPgammaS (10 uM). The N-terminal TwinStreptag and TEV linker are not in the letters.).
T1 construct: Same polypeptide as m15 and m16; here loaded with an excess of GTPgS (10 uM); Produced in Sf9 insect cells; also called Galphai1 protein loaded with GTPgS
Briefly: TR-FRET (HTRF) saturation binding; VH-d2 titrated on 1 nM TST-Galphai1 with 10 uM GTPgS, anti-TST-Lumi4-Tb donor; mean Kd. On the procedure:
(§1) The TR-FRET (HTRF) test made it possible to determine the affinity (Kd) of the various antibodies for the Galphai1 protein; FIG. 2 illustrates the principle of this test. A fixed concentration (1 nM) of the recombinant Galphai1 protein purified and tagged with TST (TST-Galphai1 protein) was placed in the presence of an excess of nucleotide (GDP or GTPgS) (10 μM), of a fixed concentration (0.5 nM) of anti-TST antibody labeled with the donor Lumi4®-Tb (anti-TST antibody-Lumi4®-Tb) and of increasing concentrations of VH-type single-domain antibodies labeled with the acceptor d2 (anti-Galphai VH antibody-d2). The total HTRF signal was then obtained.
(§2) The specific HTRF signal of the interaction between the antibody and the Galphai1 protein was then calculated by subtracting the nonspecific signal from the total signal. The data of the specific HTRF signal were then analyzed on GraphPad Prism7 software using a “one site specific binding” fit. The dissociation constant (Kd) of the antibody for the Galphai1 protein was then determined. The results which were obtained with the antibodies which bind to the G protein alpha bound to GTP gamma S and with the antibodies which bind to the G protein alpha bound to GDP are shown in Tables 1 and 2 below.
(In general: Time-resolved FRET reads energy transfer from a long-lived donor to a nearby acceptor.)

For test [2], the target named is T2, empty G alphai1 protein (recombinant TST-Galphai1 protein, no nucleotide) (human, UniProt P63096 1-354).
T2 construct: Same polypeptide as m14 and m15; also called empty G protein alpha; empty form of the G protein alpha; not shown: N-terminal TwinStreptag (TST) (IBA) tag and TEV linker
Briefly: TR-FRET (HTRF) saturation binding; VH-d2 titrated on TST-Galphai1, empty form; mean Kd.

In test [3] the target is T3, recombinant TST-Galphai1 protein bound to GDP (human, UniProt P63096 1-354, Loaded non-covalently with GDP (10 uM). The N-terminal TwinStreptag and TEV linker are not in the letters.).
T3 construct: Same polypeptide as m14 and m16; here loaded with an excess of GDP (10 uM); Produced in Sf9 insect cells; also called Galphai1 protein loaded with GDP
As to the kind of experiment: TR-FRET (HTRF) saturation binding; VH-d2 titrated on 1 nM TST-Galphai1 with 10 uM GDP, anti-TST-Lumi4-Tb donor; mean Kd. As to the method: as §1, §2

For test [4], the target named is T1, recombinant TST-Galphai1 protein bound …. Briefly: TR-FRET (HTRF) saturation binding; 6HIS-tagged VH-HcAb titrated on 1 nM TST-Galphai1 with 10 uM GTPgS, anti-TST-Lumi4-Tb donor and anti-6HIS-d2 acceptor; mean Kd. On the procedure: (§3) FIG. 12 illustrates the principle of the TR-FRET (HTRF) assay which was carried out to determine the affinity (Kd) of the various VH-HcAbs for the Galphai1 protein. A fixed concentration (1 nM) of the recombinant Galphai1 protein purified and tagged with TST (TST-Galphai1 protein) is placed in the presence of an excess of nucleotide (GDP or GTPgS) (10 μM), of a fixed concentration (0.5 nM) of anti-TST antibody labeled with the donor Lumi4®-Tb (anti-Tag Ab-Donor), of a fixed concentration (50 nM) of anti-6HIS antibody labeled with the acceptor d2 (anti-6HIS-acceptor antibody, Cisbio Bioassays #61HISDLF), and of increasing concentrations of a VH-HcAb antibody tagged with 6HIS (6HIS-Fc-sdAb). The total HTRF signal was then obtained.
(§4) The specific HTRF signal of the interaction between the VH-HcAb and the Galphai1 protein was then calculated by subtracting the nonspecific signal from the total signal. The data of the specific HTRF signal were then analyzed on GraphPad Prism7 software using a “one site specific binding” fit. The dissociation constant (Kd) of the VH-HcAb for the Galphai1 protein was then determined.

For test [5], the target named is T3, recombinant TST-Galphai1 protein bound …. Briefly: TR-FRET (HTRF) saturation binding; 6HIS-tagged VH-HcAb titrated on 1 nM TST-Galphai1 with 10 uM GDP, anti-TST-Lumi4-Tb donor and anti-6HIS-d2 acceptor; mean Kd. On the procedure: as §3, §4
In test [6] the target is T2, empty G alphai1 protein (recombinant …). Briefly: TR-FRET (HTRF) saturation binding; VH-d2 titrated on TST-Galphai1, empty form; mean Kd. The source holds these as a separate data set.

Numbering of substitutions follows the chain as printed. Read-outs that look alike come from different tables or passages of the source.

T2 sequence (P63096 whole entry): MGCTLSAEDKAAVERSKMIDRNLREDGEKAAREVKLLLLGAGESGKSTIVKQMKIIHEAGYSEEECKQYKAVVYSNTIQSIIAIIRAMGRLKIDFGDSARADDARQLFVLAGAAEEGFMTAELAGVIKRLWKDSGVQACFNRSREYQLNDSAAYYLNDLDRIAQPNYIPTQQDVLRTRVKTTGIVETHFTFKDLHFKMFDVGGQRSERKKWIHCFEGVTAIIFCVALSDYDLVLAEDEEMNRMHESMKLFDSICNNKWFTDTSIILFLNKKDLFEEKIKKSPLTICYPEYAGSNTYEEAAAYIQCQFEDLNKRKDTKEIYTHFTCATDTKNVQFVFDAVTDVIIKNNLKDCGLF
T1 sequence (P63096 whole entry): as above
T3 sequence (P63096 whole entry): as above

B1: VH F9 (VHH)
VHH: EVQLVESGGGLVQPGGSLRLSCAASGFTFDDYAMNWVRQAAGKGPEWVASISSRGITTDYAHSVKGRFTVSRDNTKNTLYLQMNSLKPDDAAVYYCATDPSTWYRGTAHWGQGTQVTVSS
modifications: labeled with the acceptor fluorescent probe d2 (site not stated)
notes: Made in E. coli; also called anti-Galphai VH antibody-d2
Turning to B1, the dissociation constant (Kd) (in general, the constant that tells how readily two partners part at equilibrium) in test [1] was 32 nM.

B2: VH G6 (VHH)
VHH: B1 VHH with G10D, D30S, D31T, A33R, A41P, P45L, S63P
modifications: labeled with the acceptor fluorescent probe d2 (site not stated)
notes: as for B1
B2: in test [1], the Kd worked out at 95 nM.

B3: VH E2 (VHH)
VHH: EVQLVESGGGLVQPGGSLRLSCIGSGYTFSSYAMAWVRQASGKGPEWVASISSRGITTDYAHSVKGRFTISRDNAKNTLYLHMNNLKPEDTALYYCTRVLWYENGLYSLNDFWGQGTQVTVSS
modifications: labeled with the acceptor fluorescent probe d2 (site not stated)
notes: as for B1
In the case of B3, the Kd in test [2] was 2 nM; in test [3] it was 72 nM.

B4: VH F2 (VHH)
VHH: EVQLVESGGGLVQPGGSLRLSCAASGFTFSSYAMSWVRQAAGKGPEWVASISSRGITTDYAHSVKGRFTVSRDNTKNTLYLQMNSLKPEDTALYYCVKGWMPTGWGQGTQVTVSS
modifications: labeled with the acceptor fluorescent probe d2 (site not stated)
notes: as for B1
With B4, the dissociation constant (Kd) in test [2] amounted to 1 nM; in test [3], 14 nM.

B5: HcAb-B11 (Fc fusion)
heavy (part 1 of 2): EVQLVESGGGLVQPGGSLRLSCAASGFTFNDYWMYWVRQAPGKGLEWVSSINTGGSSTYYSDSVKGRFTTARDNAKNSLYLQLNSLRPEDTAVYYCAKEGPVGPPDYWGQGTQVTVSSAAAEQKLISEEDLNGAAHHHHHHGS
heavy (part 2 of 2): HHHHHH
notes: also called VH-HcAb B11; 6HIS-Fc-sdAb; not shown: CH2 and CH3 domains of a human IgG1
In the case of B5, the Kd in test [4] was found to be 1 nM.

B6: HcAb-G7 (Fc fusion)
heavy (part 1 of 2): QVQLQESGGGLVQPGGSLRLSCAASGFTFSWYGMSWVRQAPGKGPEWVASISSRGITTDYAHSVKGRFTVSRDNTKNTLYLQMNSLKPEDTGVYYCTRVLWYDSGAYSLNDFWGQGTQVTVSSAAAEQKLISEEDLNGAAHHHHHHGS
heavy (part 2 of 2): HHHHHH
notes: VH-type heavy-chain antibody: VH fused to CH2 and CH3 of human IgG1, then a 6-histidine tag; made in HEK293; Detected in the assay through an anti-6HIS antibody labeled with d2; also called VH-HcAb G7; 6HIS-Fc-sdAb; not shown: CH2 and CH3 domains of a human IgG1
With B6, the Kd in test [5] came out at 5 nM.

B7: VH B11 (VHH)
VHH: EVQLVESGGGLVQPGGSLRLSCAASGFTFNDYWMYWVRQAPGKGLEWVSSINTGGSSTYYSDSVKGRFTTARDNAKNSLYLQLNSLRPEDTAVYYCAKEGPVGPPDYWGQGTQVTVSS
modifications: labeled with the acceptor fluorescent probe d2 (site not stated)
notes: as for B1
In the case of B7, the Kd was determined as 1 nM in test [1] and 17 nM in test [6].

B8: HcAb-F9 (Fc fusion)
heavy (part 1 of 2): EVQLVESGGGLVQPGGSLRLSCAASGFTFDDYAMNWVRQAAGKGPEWVASISSRGITTDYAHSVKGRFTVSRDNTKNTLYLQMNSLKPDDAAVYYCATDPSTWYRGTAHWGQGTQVTVSSAAAEQKLISEEDLNGAAHHHHHHGS
heavy (part 2 of 2): HHHHHH
notes: also called VH-HcAb F9; 6HIS-Fc-sdAb; not shown: CH2 and CH3 domains of a human IgG1
In the case of B8, the Kd in test [4] worked out at 3 nM.

B9: VH F4 (VHH)
VHH: EVQLVESGGGLVQPGGSLRLSCAASGFTFSSYYMNWVRQAPGKGLEWVSSIYNGDGDTDYSDSVKGRFTISRDNAKNTVYLEMSDLKVQDTAIYYCNAYDGTLLRDYWGQGTQVTVSS
modifications: labeled with the acceptor fluorescent probe d2 (site not stated)
notes: as for B1
With B9, the Kd in test [1] is 31 nM; in test [6], 83 nM.

B10: VH A10 (VHH)
VHH: EVQLVESGGGLVQPGGSLRLSCAASGLTYSDYAMSWVRQAAGKGPEWVASISSRGITTDYAHSVKGRFTVSRDNTKNTLYLQMNSLEPEDTAVYYCTTVSYWRYEYWGQGTQVTVSS
modifications: labeled with the acceptor fluorescent probe d2 (site not stated)
notes: as for B1
For the molecule B10, the equilibrium dissociation constant (Kd) worked out at 1 nM in test [2] and 15 nM in test [3].

B11: VH G7 (VHH)
VHH: QVQLQESGGGLVQPGGSLRLSCAASGFTFSWYGMSWVRQAPGKGPEWVASISSRGITTDYAHSVKGRFTVSRDNTKNTLYLQMNSLKPEDTGVYYCTRVLWYDSGAYSLNDFWGQGTQVTVSS
modifications: labeled with the acceptor fluorescent probe d2 (site not stated)
notes: as for B1
Consider B11, for which the Kd amounted to 5 nM in test [2] and 31 nM in test [3].

(Values after patent US20210309739A1 (CISCIO BIOASSAYS, published 2021).)
